Measured values from patent US9040626B2, “Nanofibers and morphology shifting micelles” (The Regents of the University of California, priority 2009, dated 2015).
d = 2'-deoxy (DNA); r = 2'-OH (RNA)

How the values were obtained:
[1] = Critical micelle concentration (CMC) determination with pyrene probe; format: physicochemical; details: micelles after DNA2 hybridization
Method: Critical Micelle Concentration (CMC) determination. A stock solution of pyrene was prepared by adding 1 mg pyrene in 10 mL of 20 mM Tris buffer (pH 7.4) and sonicating for 12 hrs, followed by centrifugation at 12,000×g for 5 min. The supernatant containing pyrene as the fluorescent probe was utilized for this assay and measured on a plate reader fluorometer, SPECTRAMAX GEMINI EM (Molecular Devices). DNA-lipid concentration was measured via UV absorbance and micelles were accordingly diluted serially in 96-well microplates (black well, black bottom, FIA, Greiner Bio-One). Excitation was done over a 300-360 nm wavelength range and the emission was recorded at 390 nm. The slit width for excitation was fixed at 1 nm. The concentration was plotted on a logarithmic scale and the critical micelle concentration was determined at the intercept of the two tangents drawn where the decreasing surface tension becomes constant.

[2] = Particle size by DLS, TEM, AFM, SEM; format: physicochemical
Excerpt: (§1) General Methods. All reagents were bought from TCI or Sigma-Aldrich and used without further purification. DNA synthesis reagents and modifiers were bought from Glen Research or AZCO scientific. 3,4-di(octadecyloxy)benzoic acid was synthesized via a standard literature procedure (Tuffin, R. P.; Toyne, K. J.; Goodby, J. W. J. Mater. Chem. 1996, 6, 1271-1282). All DNA was synthesized on an ABI-391 via standard solid phase synthesis on controlled pore glass supports. Fluorescence measurements were performed on a Zeiss LSM confocal fluorescence microscope. Reaction volumes of 50 μL were used in all fluorescence experiments of this type. […] DNA-surfactant and DNA concentrations were determined via UV-Vis on a Hitachi U-2810 spectrophotometer. Dh was determined by DLS on a Nano-ZS90 Malvern Instrument. Zeta potential was also measured on the Nano-ZS90 Malvern instrument. […] The identities of organic molecules were confirmed by ^1H (400 MHz) and ^13C (100 MHz) NMR spectra recorded on a Varian Mercury Plus spectrometer. […]
General Methods. […] Fluorescence measurements were performed with a microplate reader (Perkin Elmer, HTS7000 Plus, λex=485 nm, λem=535 nm) using black 96 well plates. Reaction volumes of 100 μL were used in all fluorescence experiments of this type. […]

[3] = Zeta potential measurement with variable MgCl2 concentration; format: physicochemical; details: vesicles, 5 mM MgCl2
Excerpt: as §1
Zeta potential measurement with variable MgCl2 concentration. […] The zeta potential of these samples with variable MgCl2 concentrations was then measured by a Nano-ZS90 Malvern instrument. […]

DNAzyme = DNAzyme catalysis experiments: particle substrate vs ssDNA substrate; format: biochemical
Method: DNAzyme catalysis experiments. Fluorescence was directly measured at time points of 2 min, 5 min, 10 min, and 15 min after adding DNAzyme to F-ssDNA solutions in a 96-well plate. Maximum fluorescence for the DNAzyme (5 nM) added to micellar particles (0.14 g/L) at 15 minutes was set to a value of 1 for normalization of data. Complete consumption of particle bound substrate was confirmed by a calibration curve plotted for fluorescence vs concentration of a fluorescein-modified oligonucleotide (DNA-F—see above for synthesis and sequence). i.e. plateau in resulting curve is due to consumption of substrate not product inhibition. […] Fluorescent product from shell DNA cleavage was measured from supernatant that passed through a 10,000 MWCO spin tube filter. i.e. particles are left behind, and fluorescent product comes through for analysis at each time point. […]
The DNAzyme catalyst consists of a conserved DNA sequence forming a catalytic domain with 5′- and 3′-ends as recognition sequences.^22 Therefore, a DNA substrate with a single RNA base (rA) as the site of cleavage was chosen for incorporation in the DNA-brush copolymer architecture used to form micellar aggregates (FIG. 25). […] By centrifuging at 14,000×g for 30 seconds at given time points, the ssDNA product was separated from particles as it passed through the MWCO filter for analysis by fluorescence. […]

| Substance | critical micelle concentration [1] | micelle size ([2]; after DNA2 addition to vesicles) | vesicle diameter ([2]; spherical vesicles after dialysis, Tris 50 mM pH 7.4) | zeta-potential [3] | DNAzyme turnovers (DNAzyme; 2 μM substrate, 5 nM catalyst) | DNAzyme turnover over the same time scale (15 minutes) (DNAzyme; F-ssDNA 1 μM, DNAzyme 5 nM) |
| --- | --- | --- | --- | --- | --- | --- |
| DNA1-lipid: 3,4-di(octadecyloxy)benzoic acid conjugated to 5′-amino 9-mer ssDNA 5′-NH2-TCGCACCCA-3′; assembles into vesicles | 300 nM | 20-25 nm | approx. 500 nm | −13 mV | – | – |
| Fluorescein-5′-TCGCACCCrAGTCTCTCTCC-3′-Dabcyl (DNA TCGCACCCAGTCTCTCTCC; sugars from the 5' end d8 r1 d10, backbone not given here; further chemistry not fully specified) [F-ssDNA, fluorogenic single-stranded DNA substrate] | – | – | – | – | 1.5 turnovers | low turnover |
